Molecular target: human angiotensin-converting enzyme 2 (human) (UniProt Q9BYF1)
Assay: SPR

Sequence of UniProt Q9BYF1 (Q9BYF1 18-805): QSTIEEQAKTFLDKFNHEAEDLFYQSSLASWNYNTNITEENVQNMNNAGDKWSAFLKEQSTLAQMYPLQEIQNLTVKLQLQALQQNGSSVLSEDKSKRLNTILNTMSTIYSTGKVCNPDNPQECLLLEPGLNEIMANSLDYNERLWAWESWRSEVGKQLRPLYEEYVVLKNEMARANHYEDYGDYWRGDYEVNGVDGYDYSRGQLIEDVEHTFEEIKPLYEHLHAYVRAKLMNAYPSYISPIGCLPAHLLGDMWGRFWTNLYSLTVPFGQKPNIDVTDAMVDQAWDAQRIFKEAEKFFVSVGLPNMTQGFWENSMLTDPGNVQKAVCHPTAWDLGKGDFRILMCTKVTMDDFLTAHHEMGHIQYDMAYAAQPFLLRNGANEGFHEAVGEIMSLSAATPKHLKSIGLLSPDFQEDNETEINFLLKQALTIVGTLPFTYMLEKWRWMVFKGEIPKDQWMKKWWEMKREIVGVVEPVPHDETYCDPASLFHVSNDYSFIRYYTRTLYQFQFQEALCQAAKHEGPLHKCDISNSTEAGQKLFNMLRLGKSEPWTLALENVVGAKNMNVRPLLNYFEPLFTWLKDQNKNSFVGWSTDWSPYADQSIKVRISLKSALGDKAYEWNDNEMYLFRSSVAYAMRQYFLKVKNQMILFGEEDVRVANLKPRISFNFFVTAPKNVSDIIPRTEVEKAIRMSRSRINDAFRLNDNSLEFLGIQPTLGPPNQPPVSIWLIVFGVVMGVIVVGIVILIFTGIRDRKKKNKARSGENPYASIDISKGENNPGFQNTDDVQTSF

For “SARS-CoV-2 trimeric Spike protein, wild-type, prefusion-stabilised”, the Kd was 6.4 nM.

Source: doi:10.1101/2021.06.14.448436
